Entries after “also recorded” stand apart in the source; their conditions may differ.
What was measured:
hTERT [1] = test: RT-PCR of hTERT in VA13 cells; assay type: cell-based; conditions: transient transfection
Procedure: (§1) FIG. 10.—Telomerase activity and expression levels of hTERT and hTR in the cells of patients with dyskeratosis congenita and in VA13 cells transiently transfected with the 24.2 plasmid or the pLNCX empty vector. A) Telomerase activity measured by means of the TRAP assay in the cells of patients with dyskeratosis congenita (DC-1, DC-2 and DC-3) and in the carrier parent (DC-C) following electroporation of 45 μg of the pLNCX empty plasmid (−) or the pLNCX 24.2 vector (+) by 15 million cells. B) RT-PCR of the RNA from cells of one of the patients with dyskeratosis congenita, DC3 transfected with the empty vector and DC3 transfected with the 24.2 plasmid, using oligos specific for hTERT and hTR. As a starting RNA control, oligos for the amplification of GAPDH were used. C) Telomerase activity in VA13 cells. The cells were transiently transfected with 16 μg of the control pLNCX empty vector, expressing DKC or the GSE 24.2 peptide per million cells. 24 hours later, the telomerase activity was analysed as described above, using dilutions of the protein extracts from each transfection. D) The expression levels of hTERT and hTR in VA13 cells transfected with 16 μg of the different construct per million cells. RNA levels were detected as described above. GAPDH was used as a control. […] After 24 h of transfection, the luciferase activity was analyzed as described above. […]

hTR = test: RT-PCR of hTR in cells of patients with dyskeratosis congenita; assay type: cell-based, human; conditions: RT-PCR 24 hours after transfection
Procedure: as §1

hTERT [2] = test: RT-PCR expression of hTERT in 293T cell lines after cisplatin; assay type: cell-based, human; conditions: pre-treated 0.5 μg/ml, treated 3 μg/ml cisplatin for 3 and 7 days
Procedure: FIG. 7.—Expression levels of different genes related to telomerase in 293T cells: pLNCX and 24.2 following treatment with cisplatin. The cells were seeded in 60-mm plates, treated with 3 μg/ml of cDDP following pre-treatment with 0.5 μg/ml of cisplatin for 3 days and, subsequently, collected at the times specified in the figure (3 and 7 days). Following the extraction of RNA, RT-PCR was performed with oligos specific for hTERT, hTR and dyskerin in order to study the expression levels of the messenger RNAs. As a starting RNA control, oligos for the amplification of GAPDH were used.
One of the explanations for the lower sensitivity of pLNCX 24.2 cells to cisplatin could be a change in the levels of some of the components of the telomerase complex. Therefore, the expression levels of different genes involved in the telomerase complex and the effect that cisplatin had on their expression were studied. To this end, the pLNCX and pLNCX 24.2 cells were pre-treated with 0.5 μg/ml and treated with 3 μg/ml of cisplatin for 3 and 7 days. Using oligos specific for hTR, hTERT and dyskerin, the expression levels of these genes and the effect of cisplatin on said expression were studied. […] This change in the sensitivity to cisplatin could explain, at least partially, the difference in sensitivity in the telomerase activity assays.
Expression of genes by RT-PCR. […]

telomerase = test: Telomerase activity (TRAP) in cells of patients with dyskeratosis congenita; assay type: cell-based, human; conditions: DC-1, DC-2, DC-3 and carrier parent (DC-C) cells; 24 hours after transfection vs empty vector
Procedure: as §1, with “The cells were transiently transfected with 16 μg of the control pLNCX empty vector, expressing DKC or the GSE 24.2 peptide per million cells.” left out, “D) The expression levels of hTERT and hTR in VA13 cells transfected with 16 μg of the different construct per million cells.” left out, “above.” for “above. GAPDH was used as a control.”
Telomerase activity assay based on the TRAP method Wright et al., 1995). The telomerase activity was measured using the TRAPeze telomerase detection kit (Intergen) in accordance with the instruction manual. […]

B1: GSE 24.2: 165-pb cDNA fragment (nucleotides 268 to 433) of human dyskerin, SEQ ID NO1, encoding peptide SEQ ID NO2, expressed from pLNCX plasmid (nucleic acid, listed as Homo sapiens)
DNA: GGTTTCATTAATCTTGACAAGCCCTCTAACCCCTCTTCCCATGAGGTGGTAGCCTGGATTCGACGGATACTTCGGGTGGAGAAGACAGGGCACAGTGGTACTCTGGATCCCAAGGTGACTGGTTGTTTAATCGTGTGCATAGAACGAGCCACTCGCTTGGTGAAG
modifications: expressed from pLNCX plasmid; CDS (1)..(165) Sequence GSE 24.2
- expression of hTERT RNA in VA13 cells (hTERT [1]): capable of recovering
- hTR expression levels in dyskeratosis congenita cells (hTR): an increase in the expression levels was observed
- hTERT expression after cisplatin in pLNCX 24.2 cells (hTERT [2]): no reduction in expression in the pLNCX 24.2 cells until 7 days of treatment
- telomerase activity in dyskeratosis congenita cells (telomerase): an increase in telomerase activity was observed; also recorded: compensates for the defects in telomerase activity

— patent US9587002B2, “Sequence of nucleotides and peptides GSE 24.2 of dyskerin, which can induce telomerase activity, method for obtaining same, therapeutic compositions and applications thereof” (CONSEJO SUPERIOR DE INVESTIGACIONES CIENTIFICAS, priority 2005, dated 2017)
